Experimental findings from patent publication US20250042968A1 (UNIVERSITY OF MIAMI, published 2025) are described below.

This experiment deals with T1, EphA2 (UniProt P29317 25-534, limits assumed).
T1 construct: also called EphA2 receptor
The experiment can be described thus: biolayer interferometry (ForteBio Octet). A general note: Biolayer interferometry detects binding as a change in optical thickness at a sensor tip.

T1 sequence (P29317 25-534 limits assumed): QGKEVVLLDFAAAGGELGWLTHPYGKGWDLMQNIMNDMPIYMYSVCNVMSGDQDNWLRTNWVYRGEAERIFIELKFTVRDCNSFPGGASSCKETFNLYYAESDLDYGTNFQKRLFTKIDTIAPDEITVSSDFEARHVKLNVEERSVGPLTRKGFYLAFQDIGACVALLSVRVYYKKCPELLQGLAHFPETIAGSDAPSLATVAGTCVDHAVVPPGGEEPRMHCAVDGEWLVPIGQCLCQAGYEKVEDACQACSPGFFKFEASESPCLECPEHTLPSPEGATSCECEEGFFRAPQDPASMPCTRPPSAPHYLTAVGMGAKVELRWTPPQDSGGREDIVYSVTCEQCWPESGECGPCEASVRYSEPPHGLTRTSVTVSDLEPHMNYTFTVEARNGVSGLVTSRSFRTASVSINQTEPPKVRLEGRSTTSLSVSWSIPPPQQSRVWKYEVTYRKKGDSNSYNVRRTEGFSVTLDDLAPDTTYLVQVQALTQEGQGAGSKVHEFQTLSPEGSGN

B1: SNEW (peptide)
peptide: SNEWIQPRLPQH
notes: Known EphB2 targeting peptide, tested alongside the xEFN peptides as a comparator
As for B1, the binding result is recorded as “no binding”.
